Measurements from the supplement of paper PMC7877785.
± gives the uncertainty stated by the source.

Experiment: self-splicing fitness, log relative to wild type (ln ratio); higher = more splicing; Tetrahymena group I intron in knt gene, E. coli kanamycin selection, DiMSum; sequences stand for … in CUCUCU…GGAGGGAAAAGUUAUCAGGCAUGCACCUGGUAGCUAGUCUUUAAACCAAUAGAUUGCAUCGGUUUAAAAGGCAAGACCGUCAAAUUGCGGGAAAGGGGUCAACAGCCGUUCAGUACCAAGUCUCAGGGGAAACUUUGAGAUGGCCUUGCAAAGGGUAUGGUAAUAAGCUGACGGACAUGGUCCUAACCACGCAGCCAAGUCCUAAGUCAACAGAUCUUCUGUUGAUAUGGAUGCAGUUCACAGACUAAAUGUCGGUCGGGGAAGAUGUAUUCUUCUCAUAAGAUAUAGUCGGACCUCUCCUUAAUGGGAGCUAGCGGAUGAAGUGAUGCAACACUGGAGCCGCUGGGAACUAAUUUGUAUGCGAAAGUAUAUUGAUUAGUUUUGGAGUACUCGUGGUCG
Summary of the method: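 A randomised library covering all eight P1ex-region intron nucleotides was built with the intron in the knt kanamycin-resistance gene on pET-22b(+) and held in E. coli BL21(DE3). Cells were grown overnight at 37°C or 30°C on LB agar, with or without 25 μg/mL kanamycin, plus 100 μg/mL carbenicillin, 50 μM IPTG and 0.2% rhamnose, and pooled colonies were amplicon-sequenced on an Illumina HiSeq 2500. DiMSum fitness is the error-weighted combination of wild-type-normalised replicate fold changes, kanamycin versus none.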

Row | Sequence | self-splicing fitness (ln) (30 °C) | self-splicing fitness (ln) (37 °C)
1 | GCUUAGCAAUAUUACGUGGC | -3.12 ± 0.22 | -1.44 ± 0.4
2 | UUUCAGCAAUAUUACGGGCA | -0.321 ± 0.076 | -0.0917 ± 0.085
3 | GAAUAGCAAUAUUACGGUAA | -2.25 ± 0.16 | -0.943 ± 0.13
4 | UCUUAGCAAUAUUACGAGAC | -2.23 ± 0.25 | 
5 | GAGCAGCAAUAUUACGGGGC | -3.57 ± 0.21 | -2.52 ± 0.25
6 | CGCUAGCAAUAUUACGCACG | -2.53 ± 0.17 | -2.06 ± 0.24
7 | CUCGAGCAAUAUUACGGCCA | -2.34 ± 0.24 | -3.47 ± 0.35
8 | GUACAGCAAUAUUACGCGUC | -3.1 ± 0.21 | -0.709 ± 0.14
9 | AUUAAGCAAUAUUACGGGUG | -1.87 ± 0.13 | -1.69 ± 0.16
10 | CCGGAGCAAUAUUACGGUCA | -4.22 ± 0.47 | 
11 | GCAUAGCAAUAUUACGGCCA | -1.05 ± 0.19 | -1.17 ± 0.21
12 | CAGCAGCAAUAUUACGAACU | -2.68 ± 0.16 | -2.11 ± 0.14
13 | ACGGAGCAAUAUUACGUGGA | -3.74 ± 0.37 | -2.26 ± 0.24
14 | AUGAAGCAAUAUUACGAGGU | -3.32 ± 0.15 | -2.07 ± 0.18
15 | GAUAAGCAAUAUUACGAGGU | -3.42 ± 0.13 | -2.79 ± 0.13
16 | AAGGAGCAAUAUUACGAAGA | -3.41 ± 0.29 | -3.13 ± 0.37
17 | GGAGAGCAAUAUUACGAUAC | -2.61 ± 0.35 | -2.47 ± 0.31
18 | GUACAGCAAUAUUACGAAAG | -3.47 ± 0.1 | -1.04 ± 0.092
19 | UAGAAGCAAUAUUACGCUGA |  | -1.74 ± 0.2
20 | AGGUAGCAAUAUUACGACUG | -0.0476 ± 0.015 | -0.0252 ± 0.034

Row | Sequence | self-splicing fitness (ln) (30 °C) | self-splicing fitness (ln) (37 °C)
21 | CACUAGCAAUAUUACGUAGG | -1.04 ± 0.1 | -0.696 ± 0.14
22 | UUUCAGCAAUAUUACGGACC | -1.2 ± 0.4 | 
23 | GUCCAGCAAUAUUACGCGCU | -2.67 ± 0.25 | -2.51 ± 0.31
24 | CUGUAGCAAUAUUACGUGUC | -2.97 ± 0.27 | -1.29 ± 0.17
25 | UUCUAGCAAUAUUACGCUGU | -2.17 ± 0.17 | -1.63 ± 0.2
26 | CCGAAGCAAUAUUACGCUUC | -3.15 ± 0.27 | -3.2 ± 0.34
27 | UCUGAGCAAUAUUACGCUAC | -3.66 ± 0.3 | -3.09 ± 0.47
28 | GCAAAGCAAUAUUACGGUCG | -1.62 ± 0.089 | -0.369 ± 0.11
29 | CGCAAGCAAUAUUACGCGCU | -3.78 ± 0.16 | -1.41 ± 0.12
30 | AUUGAGCAAUAUUACGGAAA | -2.56 ± 0.3 | -1.7 ± 0.25
31 | UGGGAGCAAUAUUACGGGGC | -2.62 ± 0.48 | -2.07 ± 0.34
32 | UGCAAGCAAUAUUACGCAAG | -2.59 ± 0.17 | -3.02 ± 0.32
33 | UUAUAGCAAUAUUACGUAGG | -1.75 ± 0.14 | -0.198 ± 0.17
34 | GUGCAGCAAUAUUACGCCGU | -2.77 ± 0.23 | -0.412 ± 0.18
35 | AUGUAGCAAUAUUACGCUGC | -2.72 ± 0.41 | -2.69 ± 0.48
36 | GUGCAGCAAUAUUACGUAAC | -1.63 ± 0.15 | -0.239 ± 0.14
37 | CUCAAGCAAUAUUACGCCGG | -2.92 ± 0.38 | -1.53 ± 0.31
38 | CCCUAGCAAUAUUACGGUCC | -3.45 ± 0.22 | -1.51 ± 0.28
39 | ACCUAGCAAUAUUACGGCGU | -0.278 ± 0.056 | 0.12 ± 0.07
